{"source": "paper PMC11440976", "about": "“Optimization and Evaluation of Al^18F Labeling Using a NOTA—or RESCA1-Conjugated AE105 Peptide Antagonist of uPAR” (Frontiers in Nuclear Medicine, 2021)", "molecules": {"B1": {"name": "RESCA1-AE105 (peptide)", "chain": "DXFSRYLWS", "modifications": "RESCA1 chelator conjugated at the N-terminal; Cha (cyclohexylalanine) at position 2; (D)Ser at position 4; (D)Arg at position 5"}, "B2": {"name": "AE105-mut (peptide)", "chain": "D[Cha]E[dS][dR]YLES"}, "B3": {"name": "NOTA-AE105 (peptide)", "chain": "DXFSRYLWS", "modifications": "NOTA chelator conjugated at the N-terminal; Cha (cyclohexylalanine) at position 2; (D)Ser at position 4; (D)Arg at position 5"}, "B4": {"name": "AE105 (peptide)", "chain": "DXFSRYLWS", "modifications": "Cha (cyclohexylalanine) at position 2; (D)Ser at position 4; (D)Arg at position 5"}}, "key": {"uPAR^1−283 [1]": {"target": "T1, uPAR^1−283 (Homo sapiens, UniProt Q03405)", "T1 construct": "10 μg/mL uPAR^1−283 in 10 mM sodium acetate pH 5.0 was covalently immobilized on a CM5 sensor chip; made in house", "T1 sequence (Q03405 23-305)": "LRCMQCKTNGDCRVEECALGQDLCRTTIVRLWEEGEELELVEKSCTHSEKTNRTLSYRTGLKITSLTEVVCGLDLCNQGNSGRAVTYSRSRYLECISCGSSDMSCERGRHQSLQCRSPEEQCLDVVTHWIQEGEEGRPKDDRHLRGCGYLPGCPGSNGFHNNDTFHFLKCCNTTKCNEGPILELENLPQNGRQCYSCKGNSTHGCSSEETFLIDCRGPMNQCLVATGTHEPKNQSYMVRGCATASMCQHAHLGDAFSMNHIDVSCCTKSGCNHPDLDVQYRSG", "assay": "SPR binding kinetics of peptides to immobilized uPAR (Biacore T200, single cycle)", "conditions": "NB = no binding; for kon / koff: uPAR immobilized on CM5 chip, peptide in solution, global fit, ± standard error of fit; for kon: five serial 2-fold dilutions, 10 mM HEPES, 150 mM NaCl, 3 mM EDTA, 0.05% P-20, pH 7.4, 20°C, read-out: kon (association rate constant); for koff: read-out: koff (dissociation rate constant)", "experimental": "Binding kinetics of the peptides-uPAR interactions were determined with surface plasmon resonance (SPR) on a Biacore T200™ system (Cytiva), as outlined ([10]). In brief; 10 μg/mL uPAR^1−283 in 10 mM sodium acetate pH 5.0 was covalently immobilized on a CM5 sensor chip via amine coupling yielding a surface density of 905-1,333 RU (~26–39 fmol/mm^2) ([11]). Subsequently, we measured the binding kinetics of the various peptides to immobilized uPAR with single cycle protocols in which the peptides were injected as five serial 2-fold dilutions for 200 s with a short dissociation phase in between (100 s). The last analyte injection was followed by a 1,000 s long dissociation phase. In the end of each cycle, two consecutive injections of 0.1 M acetic acid in 0.5 M NaCl regenerated the sensor chip. All experiments were run with a flowrate of 50 μl/min in 10 mM HEPES, 150 mM NaCl, 3 mM EDTA, and 0.05% (v/v) surfactant P-20 at pH 7.4 at 20°C. The kinetic rate constants (kon and koff) as well as the KD (koff/kon) were determined by non-linear regression fitting of the curves to a simple bimolecular interaction model. We applied the BiacoreT200 Evaluation^TM 3.0 software for the global fitting. Additional binding kinetic curves is provided in the Supplementary Material."}, "uPAR·uPA interaction": {"target": "uPAR·uPA interaction (Homo sapiens, UniProt Q03405)", "sequence (Q03405 23-305 limits assumed)": "as the sequence (Q03405 23-305) above", "assay": "SPR competition of the uPAR·uPA interaction (uPAR in solution, immobilized pro-uPA^S356A)", "type": "binding", "conditions": "2 nM uPAR incubated with 3-fold dilution series of peptide (0.076 nM to 1.5 μM), pH 7.4, 20°C, four-parameter dose-response fit, n = 3, ± standard error", "experimental": "The IC50-values of RESCA-AE105, NOTA-AE105, AE105 (Asp-Cha-Phe-(D)Ser-(D)Arg-Tyr-Leu-Trp-Ser) and AE105-mut (Asp-Cha-Glu-(D)Ser-(D)Arg-Tyr-Leu-Glu-Ser) on the uPAR·uPA interaction were determined with SPR on a Biacore 3000™ instrument or a Biacore T200™ system (Cytiva). The set-up is overall as described previously ([12]). In brief, we obtained a high surface density of pro-uPA^S356A by immobilizing >5,000 RU (~ 0.1 pmol pro-uPA/mm^2) on a CM5 sensor chip. […] For the analysis, we incubated 2 nM uPAR with a 3-fold dilution series of the peptides (ranging from 0.076 nM to 1.5 μM) and the νobs was measured for 300 s at 20°C with a flow rate of 50 μL/min. The running buffer contained 10 mM HEPES, 150 mM NaCl, 3 mM EDTA and 0.05 % (v/v) surfactant P20, pH 7.4. The sensor chip was regenerated with two consecutive injections of 0.1 M acetic acid, 0.5 M NaCl in the end of each cycle. In parallel, we measured a standard curve (2-fold dilution of uPAR covering 0.06–2 nM). This standard curve included one repeated concentration point at the end to validate the biological integrity of the sensor chip."}, "uPAR^1−283 [2]": {"target": "T2, uPAR^1−283 (UniProt Q03405-1 23-305)", "T2 sequence (Q03405 23-305)": "as above", "assay": "SPR; competition in solution: 2 nM uPAR incubated with 3-fold dilution series of the peptides (0.076 nM to 1.5 μM), free uPAR read by its association rate on pro-uPA^S356A immobilised at high density (>5,000 RU) on a CM5 chip; 10 mM HEPES, 150 mM NaCl, 3 mM EDTA, 0.05% P20, pH 7.4, 20°C; four-parameter dose-response fit, n = 3", "conditions": "both partners purified"}, "uPAR^1−283 [3]": {"target": "T2, uPAR^1−283", "assay": "SPR; uPAR^1−283 immobilised on a CM5 chip by amine coupling (905-1,333 RU); peptides injected in single cycle protocols, five serial 2-fold dilutions; 10 mM HEPES, 150 mM NaCl, 3 mM EDTA, 0.05% P-20, pH 7.4, 20°C; Biacore T200; simple bimolecular model, global fit", "conditions": "both partners purified"}}, "note": "Where a SMILES comes first, the peptide text is derived from it. Where no end group is shown, it is not given here. [ ]: non-standard residue; d: D form. Cha = N[C@@H](CC1CCCCC1)C(=O)O", "data": [{"molecule": "CC(C)C[C@H](NC(=O)[C@H](Cc1ccc(O)cc1)NC(=O)[C@@H](CCCNC(=N)N)NC(=O)[C@@H](CO)NC(=O)[C@H](Cc1ccccc1)NC(=O)[C@H](CC1CCCCC1)NC(=O)[C@@H](N)CC(=O)O)C(=O)N[C@@H](Cc1c[nH]c2ccccc12)C(=O)N[C@@H](CO)C(=O)O", "note": "[AE105]", "values": [{"measurement": "kon", "setting": "uPAR^1−283 [1]", "value": "1.01e+06 ± 3000", "unit": "M⁻¹ s⁻¹"}, {"measurement": "koff", "setting": "uPAR^1−283 [1]; pH 7.4, 20°C", "value": "0.00413 ± 1e-05", "unit": "s⁻¹"}]}, {"molecule": "CC(C)C[C@H](NC(=O)[C@H](Cc1ccc(O)cc1)NC(=O)[C@@H](CCCNC(=N)N)NC(=O)[C@@H](CO)NC(=O)[C@H](CCC(=O)O)NC(=O)[C@H](CC1CCCCC1)NC(=O)[C@@H](N)CC(=O)O)C(=O)N[C@@H](CCC(=O)O)C(=O)N[C@@H](CO)C(=O)O", "note": "[AE105mut] (H-D[Cha]E[dS][dR]YLES-OH)", "values": [{"measurement": "IC50", "setting": "uPAR·uPA interaction", "value": "> 1000", "unit": "nM"}, {"measurement": "Kd", "setting": "uPAR^1−283 [1]; immobilized uPAR, pH 7.4, 20°C, simple bimolecular interaction model, read-out: KD (equilibrium dissociation constant, koff/kon)", "value": "> 200", "unit": "nM"}]}, {"molecule": "CC(C)C[C@H](NC(=O)[C@H](Cc1ccc(O)cc1)NC(=O)[C@@H](CCCNC(=N)N)NC(=O)[C@@H](CO)NC(=O)[C@H](Cc1ccccc1)NC(=O)[C@H](CC1CCCCC1)NC(=O)[C@H](CC(=O)O)NC(=O)c1ccc(CN(CC(=O)O)[C@@H]2CCCC[C@H]2N(CC(=O)O)CC(=O)O)cc1)C(=O)N[C@@H](Cc1c[nH]c2ccccc12)C(=O)N[C@@H](CO)C(=O)O", "note": "[RESCA1-AE105]", "values": [{"measurement": "kon", "setting": "uPAR^1−283 [1]", "value": "292000 ± 1000", "unit": "M⁻¹ s⁻¹"}, {"measurement": "koff", "setting": "uPAR^1−283 [1]; pH 7.4, 20°C", "value": "0.014 ± 2e-05", "unit": "s⁻¹"}]}, {"molecule": "B1", "values": [{"measurement": "IC50", "setting": "uPAR^1−283 [2]", "value": 76.7, "unit": "nM"}, {"measurement": "Kd", "setting": "uPAR^1−283 [3]", "value": 48, "unit": "nM"}]}, {"molecule": "B2", "values": [{"measurement": "IC50", "setting": "uPAR^1−283 [2]", "value": "> 1000", "unit": "nM"}]}, {"molecule": "B3", "values": [{"measurement": "koff", "setting": "uPAR^1−283 [3]", "value": 0.0125, "unit": "s⁻¹"}, {"measurement": "kon", "setting": "uPAR^1−283 [3]", "value": 224000, "unit": "M⁻¹ s⁻¹"}]}, {"molecule": "B4", "values": [{"measurement": "IC50", "setting": "uPAR^1−283 [2]", "value": 8.86, "unit": "nM"}, {"measurement": "Kd", "setting": "uPAR^1−283 [3]", "value": 4.1, "unit": "nM"}]}]}
